# In paper PMC5764952 (2018):
# Molecular target: Untagged murine saposin A (SapA) (mouse)
# Test: crystal structure; complex formed at pH 5.0 with the detergent LDAO, SapA:GALC molar ratio 2:1; crystals at 20 °C from 75 mM sodium citrate pH 5.6, 11% PEG 3350; 3.6 Å
substance,measurement,value
Untagged murine saposin A (SapA) (natural protein),stoichiometry N,2
